Measurements: patent US20030162229A1
Where no end group is shown, it is not given here. The star is where a group is joined. Biotin = O=C1N[C@H]2[C@H](CS[C@H]2CCCCC(=O)*)N1

B1: biotinylated peptide #28 (Set 1) of the human (alpha)C subunit (peptide)
peptide: Biotin-SGSGGTMRPLHVRTTSDG
B2: biotinylated peptide #18 (Set 1) of the human (alpha)C subunit (peptide)
peptide: Biotin-SGSGGGCGLHIPPNLSLP
B3: biotinylated peptide #32 (Set 1) of the human (alpha)C subunit (peptide)
peptide: Biotin-SGSGSFKYETVPNLLTQH
B4: biotinylated peptide #23 (Set 1) of the human (alpha)C subunit (peptide)
peptide: Biotin-SGSGTPAQPYSLLPGAQP
B5: biotinylated peptide #19 (Set 1) of the human (alpha)C subunit (peptide)
peptide: Biotin-SGSGLHIPPNLSLPVPGA
B6: biotinylated peptide #30 (Set 1) of the human (alpha)C subunit (peptide)
peptide: Biotin-SGSGRTTSDGGYSFKYET
B7: biotinylated peptide #5 (Set 1) of the human (alpha)C subunit (peptide)
peptide: Biotin-SGSGWSPSALRLLQRPPE
B8: biotinylated peptide #3 (Set 1) of the human (alpha)C subunit (peptide)
peptide: Biotin-SGSGSTPLMSWPWSPSAL
B9: biotinylated peptide #6 (Set 1) of the human (alpha)C subunit (peptide)
peptide: Biotin-SGSGALRLLQRPPEEPAA
B10: biotinylated peptide #16 (Set 1) of the human (alpha)C subunit (peptide)
peptide: Biotin-SGSGSFIFHYCHGGCGLH
modifications: cysteine pairing not given here
B11: biotinylated peptide #10 (Set 1) of the human (alpha)C subunit (peptide)
peptide: Biotin-SGSGNCHRVALNISFQEL
B12: biotinylated peptide #12 (Set 1) of the human (alpha)C subunit (peptide)
peptide: Biotin-SGSGISFQELGWERWIVY
B13: biotinylated peptide #14 (Set 1) of the human (alpha)C subunit (peptide)
peptide: Biotin-SGSGERWIVYPPSFIFHY
B14: biotinylated peptide #9 (Set 1) of the human (alpha)C subunit (peptide)
peptide: Biotin-SGSGAAHANCHRVALNIS
B15: biotinylated peptide #15 (Set 1) of the human (alpha)C subunit (peptide)
peptide: Biotin-SGSGVYPPSFIFHYCHGG
B16: biotinylated peptide #11 (Set 1) of the human (alpha)C subunit (peptide)
peptide: Biotin-SGSGVALNISFQELGWER
B17: biotinylated peptide #13 (Set 1) of the human (alpha)C subunit (peptide)
peptide: Biotin-SGSGELGWERWIVYPPSF

molecular target: antiserum As #128 (sheep polyclonal, raised to the alpha subunit of human inhibin, boosted with human recombinant 30-kDa inhibin); assay: RIA, competition with iodinated inhibin

| ED50 [µM] | Molecule |
| --- | --- |
| 0.625 | B1 |
| 0.06 | B2 |
| 2.5 | B3 |
| 0.5 | B4 |
| < 0.01 | B5 |
| 0.6 | B6 |
| 3.8 | B7 |
| 38 | B8 |
| 1.8 | B9 |

molecular target: antiserum As #41 (sheep polyclonal, raised to the alpha subunit of human inhibin); assay: RIA, competition with iodinated inhibin

| ED50 [µM] | Molecule |
| --- | --- |
| 4 | B1 |
| 1.05 | B2 |
| 0.29 | B3 |
| 6.2 | B4 |
| 2.1 | B5 |
| 2.5 | B6 |
| 1.5e-05 | B7 |
| 0.026 | B9 |

molecular target: rabbit antiserum #1989; assay: RIA, competition with iodinated inhibin

| ED50 [µM] | Molecule |
| --- | --- |
| > 2.5 | B10 |
| > 2.5 | B11 |
| > 2.5 | B12 |
| > 2.5 | B13 |
| > 2.5 | B1 |
| > 2.5 | B2 |
| > 2.5 | B14 |
| > 2.5 | B3 |
| > 2.5 | B15 |
| > 2.5 | B4 |
| > 2.5 | B16 |
| > 2.5 | B5 |
| < 0.01 | B6 |
| > 2.5 | B7 |
| > 2.5 | B8 |
| > 2.5 | B9 |
| > 2.5 | B17 |

molecular target: antiserum As #41 (sheep polyclonal, raised to the alpha subunit of human inhibin); assay: competitive 2-site assay, peptides incubated with iodinated As #41

| % contribution (competition with inhibin) [%] | Molecule |
| --- | --- |
| 50 | B6 |
| 50 | B7 |

molecular target: human recombinant 30 kDa inhibin A (human) (UniProt P05111); assay: RIA, iodinated human inhibin A tracer vs human recombinant inhibin A
UniProt P05111, sequence (P05111 233-366, chain 1 of 2): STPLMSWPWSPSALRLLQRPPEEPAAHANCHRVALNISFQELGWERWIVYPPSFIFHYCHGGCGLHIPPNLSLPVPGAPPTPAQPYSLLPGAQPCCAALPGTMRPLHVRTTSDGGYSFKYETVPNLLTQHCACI
UniProt P05111, sequence (P08476 311-426, chain 2 of 2, further chain): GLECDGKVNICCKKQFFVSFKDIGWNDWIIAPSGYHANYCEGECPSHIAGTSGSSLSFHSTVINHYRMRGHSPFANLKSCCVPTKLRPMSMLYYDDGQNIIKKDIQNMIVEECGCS

| ED25 (affinity for inhibin) [µM] | Molecule |
| --- | --- |
| 0.0016 | R1 monoclonal antibody (Groome), inhibin (alpha)C subunit |
